Experimental findings from paper PMC3322552 are described below.

The experiment concerns the target Caulobacter crescentus ScsC with a His tag, without signal sequence (Caulobacter crescentus). Nature of the experiment: SEC.

In the case of “Caulobacter crescentus ScsC with a His tag, without signal sequence (natural protein)”, the stoichiometry N came to 2.

One may read the stoichiometry N as a count of units in the complex or per binding partner.
